Experimental data as given in the domain aggregation screens of Martell et al. (2025).

Assay: soluble fraction after stress (log2 fold change); higher = more stays soluble; pooled small domains, quantitative proteomics
Details: stress: 75 degC
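Note: 20 min heating vs room temperature control held 20 min.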

## HMAIKWTPEIEDEVSNKLKEKWSPEQISAWLKKNKSIMISHQRIYQFIVEDKMSGGNLYRNLRQ
  soluble fraction (log2): -2.45

## HMAIPTTDSDKATDAQIKQIKLLGDIHPNLKLDAWLERNHVTWETLTREQAGNMMKAIKNKYGD
  soluble fraction (log2): -0.105

## HMAISEAERARLQTKIKERNKMARWINTNLNPTSKIRNINPAETVRKLMTQDDADSLERSLDAFMEA
  soluble fraction (log2): -0.0807

## HMAIVNVEVPSLVGKTEQEARNLLTEAGLKVNVVNDEDESKNDGVVLRQSKDAGTEVQEGTTITITVNKVS
  soluble fraction (log2): 0.0932

## HMAKDDFMSFVKAVWPEFIEGAHHRVIAQKFNDLATGKITRLIVNMPPRHTKSEFASYLLPAW
  soluble fraction (log2): 0.214

## HMAKDEYGLTSNQRAFADEYIRNKGNATQAYLFAYPHIKKENTAAVNASRLLRNAKVSKYIADRTKEIL
  soluble fraction (log2): -0.103

## HMAKIDSRKALIDQLTTTFTRAQLEELITKNELSTDARFFLSQWNAKGWIRKTAKNVYEKLR
  soluble fraction (log2): -0.969

## HMAKLTPDQQELRAIRIELQMSQPDFADAININVPRLSSYEYGRTAGVPTSIMEAARELKRSMSR
  soluble fraction (log2): -0.848

## HMAKRDEIEAELPRFVATITQELAASRDVLSMIEHYKQNSGPVFSAELDVLTADMRSGSYEAALTRFEARF
  soluble fraction (log2): 0.188

## HMAKRKYKSFKDVAEFAQKLGIKSSTEWWAYVRGHEIPSDIPKDPSTYYKKEWTTWGDFLGTGYVSSA
  soluble fraction (log2): -0.513

## HMAKRTVPSVAEAIDNFRRQHRRMPSYAEMLPLLGVRSKSVVHFWINKLLENGLLEKDDKGYLTPGS
  soluble fraction (log2): -0.134

## HMAKSPYDVLGLKEDAPFDEVKKRYRELVKKYHPDILMGRGESEEMIEKSTRKLQEINEAYETIKQRA
  soluble fraction (log2): 0.119

## HMAKVDIPHEMVDQRIDEIVEEIKMNLESQNMSLDDYLKRMNQTEAQLRANYEATAAEQVRQGLV
  soluble fraction (log2): 0.858

## HMALDSQEVGYNIEARGARPVVAQLGKAGQFSAVENSIRLGDDNWIALAPKLAGGGNAGFTAGIKSALS
  soluble fraction (log2): -0.0514

## HMALIGSNLRHLRNERKLSQQELADLIRVGRTTIANIEANLANPGHKTLLEIVKVFDITIDELLHTDLTK
  soluble fraction (log2): -1.79

## HMALKPKITIEELIRILNESKDLSDSETAKILNKDYTTAKYGKEFTSINVQGARYALDIATNTS
  soluble fraction (log2): -0.145

## HMALLSNEDIMFNLEFNRDLAVASNDGVSRDEFLRNKYGISEEEYNMLRARYGDGLNAARIKEYVGQRD
  soluble fraction (log2): -0.182

## HMALLSNTVDELHAGMRLDSYLFESGLYPSRSFAVKQIEAGKVFLNGDAVTKKTLVSNGDFIVYELEE
  soluble fraction (log2): -0.854

## HMALMLGGLIVYLNTTAPRDDIDLIELSKDTKAMAAFGNKLASPDYNGKQFALDWHELSRDEIMSKYFS
  soluble fraction (log2): -2.03

## HMALPDWLDPEAWAAWKRHRKAIRKPLTEDAVALSIRELAKLRDEGYGPTSVIENAILKGWQGLYPPK
  soluble fraction (log2): -0.364

## HMALPGESVYVSILQSGSNRDQGVGYLDDGTMVVVDGAIKDIGKSIEVVINKSHQTVAGKMLFAKKVA
  soluble fraction (log2): -0.667

## HMALPQPDDDRQDTKKRILDMAEDLLLTRGFNAFSYQHISSELGMKNAAIHYHYPKKNDLGVAVIQRYRRR
  soluble fraction (log2): 0.128

## HMALQDKYAELLTAANTMGVTNLAVAEKDGTLHVSGTAKSTADYDSLWALYDKIDPNMASGDLMMNI
  soluble fraction (log2): 0.36

## HMALQDKYKELTDAATAAGVTDLQVREQDNVLYIDGTAPSGAVKDQLWAIYDKIDPNFVSGDLVLNVNVD
  soluble fraction (log2): 0.0863

## HMALTLDEARTQGRVGETFYGYLVALKTDAETEKLVNDINAERKASYQQLAKQNNVSVDDIAKLAGQKLV
  soluble fraction (log2): 0.00592

## HMALWFDEWKKYQDTIASADLLPDKAERDALIAQAEDRFNYWMDIYPRSASLNHSFDDLYEEHRRKIE
  soluble fraction (log2): -1.01

## HMAMDYEGFKKSVYALTSIDLNAYKERQMKRRIDTLIAKNKYNGYEDYTAAIKKDKALFEEFVNYLTIN
  soluble fraction (log2): -2.05

## HMAMMTKQRLIQLIHIARNDLQMDEDTYRQMLQGLTGKASTKGMDTPQLNRVLESMKKKGFRIK
  soluble fraction (log2): -1.69

## HMAMNLQETVLMQLRDLILRGTFEPGQRLSEQPLAERLKASRTPVRSALVTLEQEGLIEASETGKYLVRQ
  soluble fraction (log2): -0.821

## HMAMTNEEREALISEIKQTVNNSIDLKKDISDTEIKEAITQAVFERSEKSYLSIAEKQDIITAVFNSMR
  soluble fraction (log2): 0.378
